Laboratory results: patent US8772452B2, “Calcium-binding photoprotein” (JNC Corporation, priority 2009, dated 2014)

Experiments:
[1] = Luminescence pattern triggered by addition of calcium (luminescence plate reader Centro LB960); type: biochemical
Protocol: The luminescence activity of the recombinant clytin-ESNA of EXAMPLE 4 was measured as follows. After mixing 2-mercaptoethanol (1 μl) and substrate coelenterazine (1 μg/μl dissolved in ethanol) with 30 mM Tris-HCl (pH 7.6) containing 10 mM EDTA, the recombinant apoclytin-ESNA at each purification step was added to the mixture. The reaction was carried out on ice (4° C.) for 2 hours to regenerate recombinant clytin-ESNA. The luminescence reaction was triggered by adding a 50 mM calcium solution (100 μl/well) to 1 μl of this regenerated recombinant clytin-ESNA solution. The luminescence activity was measured for 10 seconds using a luminescence plate reader Centro LB960 (manufactured by Berthold) and expressed in terms of the maximum luminescence intensity (Imax).
In order to compare the luminescence properties between the recombinant clytin-ESNA (CLI-ESNA) obtained in EXAMPLE 5 and other holoproteins (aequorin (AQ)), clytin-I (CL-I), clytin-II (CL-II)) and obelin (Ob)), the luminescence patterns triggered by the addition of calcium were compared.
The luminescence patterns of CLI-ESNA, AQ, CL-I, CL-II and Ob were measured as follows. […] The luminescence reaction was initiated by adding 100 μl/well of a 50 mM calcium solution to this reconstitution solution. […]

[2] = Bioluminescence emission spectrum on addition of CaCl2 (JASCO FP-6500, excitation source off); type: physicochemical; details: 0.1 ml of 50 mM CaCl2 added to 1 ml of 50 mM Tris-HCl (pH 7.6), 0.02 mg protein
Protocol: Bioluminescence emission spectra of the recombinant clytin-ESNA obtained in EXAMPLE 4, 5) were measured in a quartz cell having a 10 mm optical path under the given conditions (band width for emission/excitation: 20 nm, response: 0.5 sec, scan speed: 2000 nm/min) using a fluorescence spectrophotometer (JASCO FP-6500) with the excitation source turned off.

B1: recombinant clytin-ESNA: Holoprotein (calcium-binding photoprotein) regenerated from recombinant apoclytin-ESNA (SEQ ID NO: 2/6) and coelenterazine (protein)
chain: VKLRPNFDNPKWVNRHKFMFNFLDINGDGKITLDEIVSKASDDICAKLGATPEQTKRHQDAVEAFFKKIGMDYGKEVEFPAFVDGWKELANYDLKLWSQNKKSLIRDWGDAVFDIFDKDGSGSISLDEWKAYGRISGICPSDEDAEKTFKHCDLDNSGKLDVDEMTRQHLGFWYTLDPTSDGLYGNFVP
modifications: coelenterazine
decay pattern of the luminescence patterns ([1]; 100 μl/well of 50 mM calcium solution, measured for 10 seconds, as compared to AQ, Cl-I, Ob): rapid decay pattern | S/N ratio ([1]; compared with Cl-I, luminescence triggered by calcium): higher S/N ratio than Cl-I | bioluminescence emission maximum wavelength [2]: 470 nm
